Experimental data reported in the supplement of paper PMC10567573.

B1: SPOPL (parent)
chain: PDDKLTLFCEVSVVQDSVNISGHT

Variants of: B1
Experiment: protein stability index of a GFP-peptide fusion (GPS, HEK-293T) (PSI 1-6); higher = more stable
Settings: c terminus: a fixed tail appended
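Further: lentivirally expressed fusions sorted by FACS into six bins by GFP to DsRed ratio, PSI derived from sequencing read proportions per bin multiplied by bin number.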

Compared with PDDKLTLFSEVSVVQDSVNISGHT [C9S], PDDKLTLFREVSVVQDSVNISGHT [C9R] is higher in protein stability index: 4.52 for the first, 4.54 for the second.

Compared with PDDKLTLFQEVSVVQDSVNISGHT [C9Q], PDDKLTLFWEVSVVQDSVNISGHT [C9W] is lower in protein stability index: 4.21 for the first, 2.62 for the second.

Compared with PDDKLTLFVEVSVVQDSVNISGHT [C9V], PDDKLTLFYEVSVVQDSVNISGHT [C9Y] is lower in protein stability index: 3.85 for the first, 2.07 for the second.

Compared with PDDKLTLFPEVSVVQDSVNISGHT [C9P], PDDKLTLFCEVSVVQDSPNISGHT [V18P] is lower in protein stability index: 4.91 for the first, 2.7 for the second.

Compared with PDDKLTLFCEVSVVQDSTNISGHT [V18T], PDDKLTLFCEVSVVQDSKNISGHT [V18K] is lower in protein stability index: 2.81 for the first, 2.69 for the second.

Compared with PDDKLTLFCEVSVVQDSENISGHT [V18E], PDDKLTLFCEVSVVQDSRNISGHT [V18R] is lower in protein stability index: 3.04 for the first, 2.03 for the second.

First: PDDKLTLFCEVSVVQDSHNISGHT [V18H]
Second: PDDKLTLFCEVSVVQDSANISGHT [V18A]
The protein stability index of the first is lower: 2.6 for the first, 2.83 for the second.

Going from PDDKLTLFCEVSVVQDSCNISGHT [V18C] to PDDKLTLFCEVSVVQDSINISGHT [V18I], the protein stability index rises from 1.85 to 2.09.

Going from PDDKLTLFCEVSVVQDSSNISGHT [V18S] to PDDKLTLFCEVSVVQDSLNISGHT [V18L], the protein stability index falls from 2.82 to 1.57.

First: PDDKLTLFCEVSVVQDSDNISGHT [V18D]
Second: PDDKLTLFCEVSVVQDSFNISGHT [V18F]
The protein stability index of the first is higher: 3.67 for the first, 1.73 for the second.

Going from PDDKLTLFCEVSVVQDSMNISGHT [V18M] to PDDKLTLFCEVSVVQDSYNISGHT [V18Y], the protein stability index falls from 2.05 to 1.77.

First: PDDKLTLFCEVSVVQDSQNISGHT [V18Q]
Second: PDDKLTLFCEVSVVQDSNNISGHT [V18N]
The protein stability index of the first is higher: 3.27 for the first, 2.99 for the second.

Compared with PDDKLTLFCEVSVVQDSGNISGHT [V18G], PDDKLTLFCEVSVVQDEVNISGHT [S17E] is higher in protein stability index: 2.83 for the first, 2.99 for the second.

First: PDDKLTLFCEVSVVQDTVNISGHT [S17T]
Second: PDDKLTLFCEVSVVQDMVNISGHT [S17M]
The protein stability index of the first is lower: 1.85 for the first, 3.15 for the second.

Going from PDDKLTLFCEVSVVQDKVNISGHT [S17K] to PDDKLTLFCEVSVVQDCVNISGHT [S17C], the protein stability index falls from 3.12 to 2.61.

Going from PDDKLTLFCEVSVVQDDVNISGHT [S17D] to PDDKLTLFCEVSVVQDRVNISGHT [S17R], the protein stability index falls from 3.11 to 1.73.

Going from PDDKLTLFCEVSVVQDLVNISGHT [S17L] to PDDKLTLFCEVSVVQDHVNISGHT [S17H], the protein stability index falls from 3.52 to 1.38.

Compared with PDDKLTLFCEVSVVQDFVNISGHT [S17F], PDDKLTLFCEVSVVQDAVNISGHT [S17A] is lower in protein stability index: 4.06 for the first, 2.29 for the second.

Going from PDDKLTLFCEVSVVQDYVNISGHT [S17Y] to PDDKLTLFCEVSVVQDGVNISGHT [S17G], the protein stability index falls from 2.99 to 2.

First: PDDKLTLFCEVSVVQDQVNISGHT [S17Q]
Second: PDDKLTLFCEVSVVQDVVNISGHT [S17V]
The protein stability index of the first is higher: 2.07 for the first, 1.03 for the second.

Compared with PDDKLTLFCEVSVVQDNVNISGHT [S17N], PDDKLTLFCEVSVVQDPVNISGHT [S17P] is higher in protein stability index: 1.84 for the first, 2.85 for the second.

Going from PDDKLTLFCEVLVVQDSVNISGHT [S12L] to PDDKLTLFCEVTVVQDSVNISGHT [S12T], the protein stability index falls from 2.1 to 1.71.

Compared with PDDKLTLFCEVDVVQDSVNISGHT [S12D], PDDKLTLFCEVNVVQDSVNISGHT [S12N] is lower in protein stability index: 3.66 for the first, 2.79 for the second.

Going from PDDKLTLFCEVIVVQDSVNISGHT [S12I] to PDDKLTLFCEVRVVQDSVNISGHT [S12R], the protein stability index rises from 2.11 to 2.32.

Compared with PDDKLTLFCEVKVVQDSVNISGHT [S12K], PDDKLTLFCEVAVVQDSVNISGHT [S12A] is higher in protein stability index: 2 for the first, 3.08 for the second.

Going from PDDKLTLFCEVFVVQDSVNISGHT [S12F] to PDDKLTLFCEVHVVQDSVNISGHT [S12H], the protein stability index falls from 2.22 to 1.71.

Going from PDDKLTLFCEVGVVQDSVNISGHT [S12G] to PDDKLTLFCEVMVVQDSVNISGHT [S12M], the protein stability index falls from 1.94 to 1.79.

Going from PDDKLTLFCEVVVVQDSVNISGHT [S12V] to PDDKLTLFCEVQVVQDSVNISGHT [S12Q], the protein stability index falls from 2.53 to 1.73.

Going from PDDKLTLFCEVPVVQDSVNISGHT [S12P] to PDDKLTLFCEVWVVQDSVNISGHT [S12W], the protein stability index falls from 3.81 to 1.98.

Compared with PDDKLTLFCEVCVVQDSVNISGHT [S12C], PDDKLTLFCEVEVVQDSVNISGHT [S12E] is lower in protein stability index: 2.73 for the first, 2.23 for the second.

Going from PDDKLTLFCEVSVRQDSVNISGHT [V14R] to PDDKLTLFCEVSVFQDSVNISGHT [V14F], the protein stability index falls from 2.74 to 2.08.

Compared with PDDKLTLFCEVSVKQDSVNISGHT [V14K], PDDKLTLFCEVSVTQDSVNISGHT [V14T] is lower in protein stability index: 2.7 for the first, 1.86 for the second.

Going from PDDKLTLFCEVSVLQDSVNISGHT [V14L] to PDDKLTLFCEVSVHQDSVNISGHT [V14H], the protein stability index rises from 1.71 to 3.19.

Compared with PDDKLTLFCEVSVMQDSVNISGHT [V14M], PDDKLTLFCEVSVEQDSVNISGHT [V14E] is higher in protein stability index: 2.01 for the first, 3.34 for the second.

First: PDDKLTLFCEVSVQQDSVNISGHT [V14Q]
Second: PDDKLTLFCEVSVPQDSVNISGHT [V14P]
The protein stability index of the first is lower: 2.7 for the first, 3.59 for the second.

Compared with PDDKLTLFCEVSVWQDSVNISGHT [V14W], PDDKLTLFCEVSVYQDSVNISGHT [V14Y] is lower in protein stability index: 1.81 for the first, 1.67 for the second.

Compared with PDDKLTLFCEVSVCQDSVNISGHT [V14C], PDDKLTLFCEVSVAQDSVNISGHT [V14A] is higher in protein stability index: 1.66 for the first, 2.63 for the second.

Going from PDDKLTLFCEVSVSQDSVNISGHT [V14S] to PDDKLTLFCEVSVNQDSVNISGHT [V14N], the protein stability index rises from 2.07 to 2.62.

Going from PDDKLTLFCEVSVIQDSVNISGHT [V14I] to PDDKLTLFCEVSVGQDSVNISGHT [V14G], the protein stability index falls from 2.56 to 2.54.

Going from PDDKLTLFCEVSVDQDSVNISGHT [V14D] to PDDKLTLFCEVSVVQDSVNESGHT [I20E], the protein stability index rises from 3.07 to 3.42.

Going from PDDKLTLFCEVSVVQDSVNASGHT [I20A] to PDDKLTLFCEVSVVQDSVNGSGHT [I20G], the protein stability index rises from 2.74 to 3.21.

Compared with PDDKLTLFCEVSVVQDSVNFSGHT [I20F], PDDKLTLFCEVSVVQDSVNCSGHT [I20C] is higher in protein stability index: 1.31 for the first, 2.86 for the second.

Compared with PDDKLTLFCEVSVVQDSVNQSGHT [I20Q], PDDKLTLFCEVSVVQDSVNKSGHT [I20K] is lower in protein stability index: 3.49 for the first, 2.56 for the second.

First: PDDKLTLFCEVSVVQDSVNSSGHT [I20S]
Second: PDDKLTLFCEVSVVQDSVNLSGHT [I20L]
The protein stability index of the first is higher: 3.04 for the first, 2.56 for the second.

Compared with PDDKLTLFCEVSVVQDSVNHSGHT [I20H], PDDKLTLFCEVSVVQDSVNPSGHT [I20P] is lower in protein stability index: 3.43 for the first, 2.59 for the second.

First: PDDKLTLFCEVSVVQDSVNTSGHT [I20T]
Second: PDDKLTLFCEVSVVQDSVNMSGHT [I20M]
The protein stability index of the first is higher: 3.2 for the first, 1.78 for the second.

First: PDDKLTLFCEVSVVQDSVNNSGHT [I20N]
Second: PDDKLTLFCEVSVVQDSVNDSGHT [I20D]
The protein stability index of the first is lower: 3.08 for the first, 3.77 for the second.
